Results taken from article PMC8568920, “Serum apolipoprotein A-I potentiates the therapeutic efficacy of lysocin E against Staphylococcus aureus” (Nature Communications, 2021).

Key:
[1] = target: biotinylated lysocin E derivative, natural type; experiment: BLI; BLItz system, room temperature; biotinylated ligand (0.1 mg/ml) immobilised on a streptavidin biosensor; PBS with 0.05% Tween-20; 300 s association and 300 s dissociation
[2] = target: biotinylated lysocin E derivative, Bu-type; experiment: as above

recombinant human apolipoprotein A-I, wild type (from UniProt P02647 19-267) (natural protein)
Kd [1]: 3.6 µM | Kd [2]: 3.4 µM
